Laboratory results published in patent publication US20230382992A1.
pEC50: −log10 of the molar value.

What was measured:
[1] = biological target: mouse TIM3 on cells (mouse) (UniProt Q8VIM0); test: binding to activated mouse T cells, compared with TIM3.18 on human TIM-3
[2] = biological target: mouse TIM3 on cells (mouse) (UniProt Q8VIM0); test: binding to activated mouse T cells (method not described)

Sequence of mouse TIM3 on cells (mouse) (Q8VIM0 20-281): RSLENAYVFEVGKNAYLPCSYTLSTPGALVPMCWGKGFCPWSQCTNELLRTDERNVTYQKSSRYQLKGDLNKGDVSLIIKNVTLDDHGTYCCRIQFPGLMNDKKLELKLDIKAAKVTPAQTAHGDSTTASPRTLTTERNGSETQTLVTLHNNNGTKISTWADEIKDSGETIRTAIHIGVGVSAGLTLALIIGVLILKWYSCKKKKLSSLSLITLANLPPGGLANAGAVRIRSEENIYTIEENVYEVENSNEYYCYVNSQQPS

fold weaker EC50 than TIM3.18 on human TIM-3 [1]: 17 fold | pEC50 [2]: 8.77
Substance: RMT3-23 rat anti-mouse TIM-3 antibody (Bio-X-Cell)
